Assay results from patent US20170088618A1.

What was measured:
[1] = biological target: human PD-1 expressed on cells (human) (UniProt Q15116); assay: flow cytometry on CHO cells expressing human PD-1; detection with anti-human IgG Fc (PE GeoMFI); fit of a flat control curve
[2] = biological target: cynomolgus PD-1 expressed on cells (cynomolgus) (UniProt B0LAJ3); assay: flow cytometry on CHO cells expressing cynomolgus PD-1; detection with anti-human IgG Fc (PE GeoMFI); fit of a flat control curve
Sequence of UniProt B0LAJ3 (B0LAJ3 entry or part of it limits assumed): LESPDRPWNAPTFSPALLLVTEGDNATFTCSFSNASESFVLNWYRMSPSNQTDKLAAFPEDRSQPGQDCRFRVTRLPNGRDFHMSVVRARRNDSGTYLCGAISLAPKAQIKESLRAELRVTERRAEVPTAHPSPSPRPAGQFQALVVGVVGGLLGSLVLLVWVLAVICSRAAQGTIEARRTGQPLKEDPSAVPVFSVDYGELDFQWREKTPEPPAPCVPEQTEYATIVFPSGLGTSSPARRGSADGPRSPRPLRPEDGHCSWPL

[3] = biological target: human PD-1 expressed on cells (human) (UniProt Q15116); assay: cell-based or functional assay

Sequence of UniProt Q15116 (Q15116 25-198 limits assumed): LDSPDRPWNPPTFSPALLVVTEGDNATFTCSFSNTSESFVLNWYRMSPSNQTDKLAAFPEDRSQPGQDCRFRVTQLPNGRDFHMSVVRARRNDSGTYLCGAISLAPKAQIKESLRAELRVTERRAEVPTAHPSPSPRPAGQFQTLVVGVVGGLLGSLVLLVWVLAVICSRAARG

Substance	LogEC50 [1]	LogEC50 [2]	IL-17 and IFN-γ levels, human whole blood assay, EC50 [3]
huIgG1 Fc	-7.75 log10(nM)	-6.89 log10(nM)	
human IgG Fc fragment			> 100 nM
